Experimental data: patent publication US20220125947A1 (published 2022)

target: T1, gamma-delta T cell receptor on human γδ T cells (human); test: flow cytometry, dose-response binding at 37 C, human γδ T cells
T1 construct: also called AG000003021 (γδ T cells)
Description: (§1) Binding of antibodies to human γδ T cells or SKW cell lines expressing Vγ9/Vδ2, Vγ9/Vδ2 or Vγ5/Vδ2 was carried out by flow cytometry. Briefly, the cells were centrifuged at 300×g for 5 minutes and the pellet was resuspended in 34 ml fresh media (in RPMI+10% FBS). 50 μL of the cells were then plated (44K cells/well) into assay plates. Samples were incubated for one hour at 37° C. in tissue culture (TC) incubator followed by wash steps by adding 100 μl FACS staining buffer. Secondary detention antibodies (A647 conjugated anti-human IgG Fc specific antibody (2 μg/mL) along with AF488 anti mouse CD3, clone OKT3 at 1 ug/mL) were added at 50 μL/well to appropriate wells according to the plate map. After incubating for 60 minutes at 37° C. in the TC incubator, cells were again washed as described above. This is followed by resuspension in 20 μL/well running buffer containing 1:1000 dilution of Sytox blue dead cell stain and the plates were run on iQue Screener.
(§2) Gating and data analysis: Human anti-human Vγ9 antibody (VG9B2 mAb at 10 nM) was used to mark the gating of positive population. All cells were first gated for singlets on SCS-A vs. SCS-H dot plot, live/dead followed by CD3 positive population, and this subset of CD3 positive population was gated for Vγ9 positive binding using positive control mAb. Cells were also assessed for cell binding of control mAbs by RL1 (A647) Geomeans from the live cell population. Advanced metrics were used and normalization metrics were chosen to calculate fold over background wells containing secondary antibody alone (designated as ‘background’ within ForeCyt settings).

Max. Activity [fold over background] | Binder
2290 | VG9B186 (antibody, human IgG1, lambda, V domains shown, IgG1, lambda) VH: QVTLRESGPVLVKPTETLTLTCTVSGFSLTNIRMSVSWIRQPPGEALEWLAHIFSNDEKSYNSSLKSRLTISRDTSKSQVVLTLTNVDPVDTATYYCARMRLPYGMDVWGQGTMVTVSS VL: not shown
2250 | VG9B177 (antibody, human IgG1, lambda, V domains shown, IgG1, lambda) VH: QVQLQESGPGLVKPSETLSLTCTVSGGSINNYFWSWIRQPPGKGLEWIGYIFYSGSTNYNPSLKSRVTISIDTSKNQFSLKVNSVTAADTAVYYCARVGKWELRTAFDIWGQGTMVTVSS VL: QSALTQPASVSGSPGQSITISCTGTSSDVADYNYVSWYQQHPGKAPKLMIYEVSNRPSGVSNRFSGSKSGNTASLTISGLQAEDEADYYCCSYTSSFTVVFGGGTKVTVLG
2310 | VG9B208 (antibody, human IgG1, lambda, V domains shown, IgG1, lambda) VH: QVQLQESGPGLVKPSETLSLTCTVSGGSISGYYWSWIRQPPGKGLELIGYIFYSGSINYNPSLKNRVTISLDTSKNQFSLKLTSVTAADTAVYYCARVGKWELRSSFDIWGQGTMVTVSS VL: QSVLTQPPSVSAAPGQKVTISCSGSTSNIGNNDVSWYQQLPGTAPKLLIYDNNKRPSGIPDRFSGSKSGTSATLGITGLQTGDEADYYCGTWDSSLSVWVFGGGTKLTVLG
2330 | VG9B87 (antibody, human IgG1, kappa, V domains shown, IgG1, kappa) VH: QVQLVESGAEVKKPGASVKVSCKASGYTFTSEYIHWVRQAPGQGLEWMGIINPSGGSTSYAQRFQGRVTMTRDTSTSTVYMEVNSLRSEDTAVYYCARERGYSYGSFDYWGQGTLVTVSS VL: EIVLTQSPSFLSASAGDRVTITCRASQGISSYLAWYQQKPEKAPKLLIYAASTLQSGVPSRFSGSGSGTEFTLTISSLQPEDFATYYCQQFNSYSLTFGGGTKLEIKR
2290 | VG9B372 (antibody, human IgG1, kappa, V domains shown, IgG1, kappa) VH: QVQLQESGPGLVKPSQTLSLTCTVSGGSISNGGFYWSWIRQHPGKGLEWLGYINYSGSTYYNPSLESRGTISLDTSKNQFSLKLRSVTAADTAVYYCARDRNYEWNFDLWGRGTLVTVSS VL: EIVMTQSPATLSLSPGEGATLSCRASQSVSSYLAWYQQKPGQAPRLLVYDASNRATGIPARFSGSGSGTAFTLTITSLEPEDFVVYYCQQRSNWPLTFGGGTKLEIKR

target: T2, γδ T cell receptor on human γδ T cells (human); test: flow cytometry, dose-response (DRC) binding at 37°C on human γδ T cells
T2 construct: also called AG000003021 (γδ T cells)
Description: as §1, §2

Max. Activity [fold over background] | Binder
2820 | VG9B161 (antibody, human IgG1, lambda, V domains shown, also called antibody #66) VH: QVQLQESGPGLVKPSETLSLTCTVSGGSISSYFWSWIRQPPGKGLEWIGYIFYSGSTNYNPSLKSRVTILVDTSKNHFSLKLSSVTAADTAVYYCARVGRWELRGAFDIWGQGTMVTVSS VL: not shown
2590 | VG9B154 (antibody, human IgG1, lambda, V domains shown, also called antibody #72) VH: QVQLQESGPGLVKPSETLSLTCTVSGGSISYYFWNWIRQPPGKGLEWIGYIYYSGSTNYNPSLKSRVTISLDTSKNQFSLKLSSVTAADTAVYYCAREGKWELRTTFDIWGQGTMVTVSS VL: not shown
2360 | VG9B173 (antibody, human IgG1, lambda, V domains shown, also called antibody #77) VH: QVQLQESGPGLVKPSETLSLTCTVSGGSINNYFWSWIRQPPGKGLEWIGYIYYSGSTNYNPSLKSRVTISVVTSMNQFSLKLSSVTAADTAVYYCAREGKWELRSAFDIWGQGTMVTVSS VL: not shown
2470 | VG9B194 (antibody, human IgG1, lambda, V domains shown, also called antibody #75) VH: EVQLLESGAEVKKPGASVKVSCKASGYTFTGDYMHWVRQAPGQGLEWMGWINPNSGYTNNAEKFQGRVTMTRDTSISTAYMELSRLSSDDTAVYYCTRELDALDVWGQGTMVTVSS VL: QSVLTQPPSASGSPGQSVTISCTGTSSDVGGYNYVSWYQQHPGKAPKLMIYEVSKRPSGVPDRFSGSKSGNTASLTVSGLQAEDEADYYCNSYAGSNNFEVFGGGTKVTVLG
2510 | VG9B159 (antibody, human IgG1, lambda, V domains shown, also called antibody #73) VH: EVQLVQSGPGLVKPSETLSLTCTVSGGSISSYYWSWIRQPAGKGLEWIGRFYTGGRNNYNPSFKSRVTMSVDTSQNQFSLKLSSVTAADTAVYYCARDMEYYYDRSGYSYWYFDLWGRGTTVTVSS VL: SYELMQPPSVSVAPGQTARITCGGNNIGSKSVHWYQQKPGQAPVLVVYDDSDRPSGIPERFSGSNSGNTATLTISRVEAGDEADYYCQVWDSSSDHVVFGGGTKLTVLG
4270 | VG9B470 (antibody, human IgG1, kappa, V domains shown, also called antibody #61) VH: QVTLKESGPTLVKPTQTLTLTCTFSGFSLTTSGVGVGWIRQPPGKALEWLALILWNDHTIYSPSLKSRLTITKDTSKNQVVLTMTNMDPVDTAAYFCARDKWELRDAFDIWGQGTMVTVSS VL: EIVMTQSPSFLSASVGDRVTFTCRASQGISRYLAWYQQKPGRAPNLLIYVASTLQSGVPSRFSGSGSGTEFTLTISSLLPEDFATYYCQQLISYPYTFSQGTRLEIKR
2780 | VG9B383 (antibody, human IgG1, lambda, V domains shown, also called antibody #67) VH: QVQLQESGPGLVKPSETLSLTCTVSSGSISSYYWNWIRQPAGKGLEWVGRIYTIGNTNYNPSLKSRVTMSIDTSKNQFSLNLSSVTAADTAVYFCAREGYYDSSGSFFPGAFGIWGQGTMVTVSS VL: SSELTQPASVSGSPGQSITISCTGTSNDVGSYNLVSWYQQHPGKAPKLMIYAGSKRPSGISNRFSGSKSGNTASLTISGLQAEDEADYYCCSFAGATNVVFGGGTKLTVLG
2500 | VG9B465 (antibody, human IgG1, lambda, V domains shown, also called antibody #74) VH: QVQLQQSGPGLVKPSETLSLTCTVSGGSITSYYWNWIRQPAGKGLEWIGRIYTIGNTNYNPSLKSRVTMSIDTSKHQFSLKLSSVTGADTAVYYCAREGYYESDGSFFPGAFNIWGQGTMVTVSS VL: SSELTQPASVSGSPGQSITISCTGTSNDVGSYNLVSWYQQHPGKAPKLMIYAGSKRPSGISNRFSGSKSGNTASLTISGLQAEDEADYYCCSYAGTTNVVFGGGTKVTVLG
3250 | VG9B169 (antibody, human IgG1, lambda, V domains shown, also called antibody #63) VH: EVQLLESGPGLVKPSETLSLTCSVSGGSITNYFWNWIRQPPGKGLEWIGYIFYSGSTSYNPSLKSRVTISVDTSKNRFSLKLISVTAADTAVYYCARVGRWELRTAFDIWGQGTMVTVSS VL: not shown
2670 | VG9B86 (antibody, human IgG1, kappa, V domains shown, also called antibody #71) VH: QVQLQESGPGLVKPSETLSLTCTVSGDSISSSYWSWIRQPAGKGLECIGRFYSSGSTSYNPSLKSRVTMAIDTSKNQFSLKLTSVTAADTAVYYCARYSGSYWYFDLWGRGTTVTVSS VL: EIVLTQSPATLSLSPGERATLSCRASQSVSSYLAWYQQRPGQAPRLLIYDTSNRATGIPARFSGSGSGTDFTLTISSLAPEDFAVYYCQQRSDWLLTFGGGTKVEIKR
2780 | VG9B382 (antibody, human IgG1, lambda, V domains shown, also called antibody #68) VH: QVQLQESGPGLVKPSETLSLTCTVSGDSISGYYWNYIRQPAGKGLDWIGRIFTTGNTNYNPSLKSRVTMSVDTSKNQFSLKLTSVTAADTAVYYCARERWDSSSSALYFDYWGQGTLVTVSS VL: QSVLTQPPSVSGAPGQRVTISCTGSSSNIGADYDIKWYQQLPGTAPKLLIYGNSNRPSGVPDRFSGSKSGTSVSLAITGLQAEDEADYYCQSYDSSMSGYVVFGGGTKLTVLG
2700 | VG9B156 (antibody, human IgG1, lambda, V domains shown, also called antibody #69) VH: QVQLQESGPGLMKPSETLSLTCTVSNGSISGYFWNWIRQPPGKGLEWIGYIFYSGSTNYNPSLKSRVTISVDTSKNLVSLKLNSVTAADTAVYFCAKLGKWELRTAFDIWGQGTMVTVSS VL: not shown
2690 | VG9B205 (antibody, human IgG1, lambda, V domains shown, also called antibody #70) VH: QVQLVQSGPGLMKPSETLSLTCTVSNGSISGYFWNWIRQPPGKGLEWIGYIFYSGSTNYNPSLKSRVTISVDTSKNLVSLKLNSVTAADTAVYFCAKLGKWELRTAFDIWGQGTMVTVSS VL: not shown
3430 | VG9B111 (antibody, human IgG1, kappa, V domains shown, also called antibody #62) VH: QVQLLESGGGLVKPGGSLRLSCAASGFTFSTYSVNWVRQAPGKGLEWVSSISSDSSYIFYADSMKGRFTISRDNAKNSLYLHMNSLRAEDTAVYYCARDSVTGPFDYWGQGTLVTVSS VL: DIVMTQSPSSLSASVGDRVTITCQASQDISHYLNWYQQKPGKAPKLLIYDSYILETGVTSRFSGSGSGTDFTFTINSLQPEDIAIYYCQQYDNLPYTFGQGTKVEIKR
3240 | VG9B639 (antibody, human IgG1, kappa, V domains shown, also called antibody #64) VH: QVQLVQSGGGLVKPGGSLRLSCAASGFTFTTYRMNWVRQAPGKGLEWVSSISSSSIYIHSADSVKGRFTISRDNAKNSLYLQMNSLRAEDSAIYYCARERVYTVSFDYWGQGTLVTVSS VL: DIQMTQSPSSLSASVGDRVTITCQASQDISHYLNWYQQKPGKAPKLLIYDSYILETGVTSRFSGSGSGTDFTFTINSLQPEDIAIYYCQQYDNLPYTFGQGTKVEIKR
3170 | VG9B201 (antibody, human IgG1, lambda, V domains shown, also called antibody #65) VH: QVTLKESGPTLVKPTQTLTLTCTFSGFSLTTHGVGVGWIRQPPRKALEWLALIYWNADKHYSPSLKSRLTITKDTSKNQVVLTMTHMDPVDTATYYCAHEGDWGHYFDFWGQGTLVTVSS VL: QLVLTQPPSVSAAPGQKVTISCSGSSSNIGNNDVSWYQQLPGTAPKLLIYDNNRRPSGIPDRFSGSKSGTSATLGITGLQTGDEADYYCETWDSSLSAIWVFGGGTKVTVLG
2370 | VG9B182 (antibody, human IgG1, lambda, V domains shown, also called antibody #76) VH: QVQLVESGPGLVKPSETLSLTCTVSGDSINNHFWSWIRQPPGKGLEWIGFVFYNGNTNYNPSLKSRVTISIDTSKSQFSLKLTSVTAADTAVYYCARVGRWVLRTAFDIWGQGTMVTVSS VL: not shown
